# Source: patent US20060134103A1, “Compounds and molecular complexes comprising multiple binding regions directed to transcytotic ligands” (published 2006)
# B1: sFv5AF-Cys purified dimer (scFv)
# scFv: DYKAKQVQLVQSGGGVVQPGRSLRLSCAASGFTFSSYAMHWVRQAPGKGLEWVSAISGSGGSTYYADSVKGRFTISRDNAKNSLYLQMNSLRAEDTAVYYCARDTRGYFDLWGRGTLVTVSSGGGGSGGGGSGGGGSSELTQDPAMSVALGQTVRITCQGDSLRKYHASWYQQRPRQAPRLVVYGKNERPSGIPERFSGSTSGDTASLTISGLQAEDEADYYCHSRDSNADLVVFGGGTKVTVLGAAAEQKLISEEDLNGAAHHHHHH
# B2: sFv5AF-Cys (starting material, mixture of monomer and dimer) (scFv)
# scFv: B1 scFv
# B3: sFv5AF-Cys purified monomer (scFv)
# scFv: B1 scFv
# Legend:
# [1] = target: pIgR expressed in transfected MDCK cells (Examples 6 and 7)
# [2] = target: T1, GST-Human-stalk fusion protein (Schistosoma japonica; human, UniProt P01833); test: SPR (BIAcore), D6-GST captured by immobilized anti-GST antibody, 1:1 Langmuir global fit
# T1 chain: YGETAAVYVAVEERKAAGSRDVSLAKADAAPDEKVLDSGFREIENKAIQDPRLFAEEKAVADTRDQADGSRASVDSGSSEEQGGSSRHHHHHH
# [3] = target: GST-Rat-stalk fusion protein (Schistosoma japonica; rat) (UniProt P15083); test: as above
Binder,apical to basolateral (reverse) transcytosis after 16 hours [1],basolateral to apical (forward) transcytosis after 16 hours [1],Ka [2],Kd [2],Ka [3],Kd [3],koff [2]
B1,10%,< 10%,5.02e+08 M⁻¹,1.99 nM,5.01e+08 M⁻¹,2 nM,
B2,,,6.71e+08 M⁻¹,1.49 nM,4.36e+08 M⁻¹,2.3 nM,0.00145 s⁻¹
B3,< 5%,,1.77e+08 M⁻¹,5.64 nM,1.77e+08 M⁻¹,5.63 nM,0.00241 s⁻¹
